Test results taken from patent US20200262920A1 (AMPHIVENA THERAPEUTICS, published 2020).
Several values for one entry are separate records, joined by “and”; a condition that tells them apart may be missing. Identical values can stand only once.

B1: CD33/CD3 2×2 T-cell engager 12 (bispecific antibody)
chain: DIQMTQSPSSLSASVGDRVTITCRSSTGAVTTSNYANWVQQKPGKAPKALIGGTNKRAPGVPSRFSGSLIGDKATLTISSLQPEDFATYYCALWYSNLWVFGQGTKVEIKGGSGGSQVQLVQSGAEVKKPGASVKVSCKASGYTFTSYDINWVRQAPGQGLEWMGWMNPNSGNTGFAQKFQGRVTMTRDTSTSTVYMELSSLRSEDTAVYYCARDRAVTDYYYGMDVWGQGTLVTVSSGGSGQSVLTQPPSASGTPGQRVTISCSGSRSNIGSNTVNWYQQLPGTAPKLLIYGNNQRPSGVPDRFSGSKSGTSASLAISGLQSEDEADYYCATWDDSLIGWVFGGGTKLTVLGGSGGSEVQLVESGGGLVQPGGSLRLSCAASGFTFSTYAMNWVRQAPGKGLEWVGRIRSKYNNYATYYADSVKDRFTISRDDSKNSLYLQMNSLKTEDTAVYYCARHGNFGNSYVSYFAYWGQGTLVTVSSAAAGSHHHHHH
notes: Non-covalent homodimer; also called tandom diabody 12
B2: CD33/CD3 2×2 T-cell engager 07 (bispecific antibody)
chain: DIQMTQSPSSLSASVGDRVTITCRSSTGAVTTSNYANWVQQKPGKAPKALIGGTNKRAPGVPSRFSGSLIGDKATLTISSLQPEDFATYYCALWYSNLWVFGQGTKVEIKGGSGGSQVQLQESGGGVVQPGRSLRLSCAASGFSFSNYGIHWVRQAPGKGLEWVALISYDGNKKFYADSVKGRFAISRDTSKNTVDLQMTSLRPEDTAVYYCAKDRLESAAFDYWGQGTLVTVSSGGSGGSSYELTQPPSVSVAPGQTAMITCGGNNIGSTTVHWYQQKPGQAPVLVVYDDNERPSGIPERFSGSNSGSTATLTINRVEAGDEADYYCQVWDSGSDHVVFGGGTKLTVLGGSGGSEVQLVESGGGLVQPGGSLRLSCAASGFTFSTYAMNWVRQAPGKGLEWVGRIRSKYNNYATYYADSVKDRFTISRDDSKNSLYLQMNSLKTEDTAVYYCARHGNFGNSYVSYFAYWGQGTLVTVSSAAAGSHHHHHH
notes: Non-covalent homodimer; also called 2×2 T-cell engager 7
B3: CD33/CD3 2×2 T-cell engager 23 (bispecific antibody)
chain: DIQMTQSPSSLSASVGDRVTITCRSSTGAVTTSNYANWVQQKPGKAPKGLIGGTNKRAPGVPSRFSGSLIGTDFTLTISSLQPEDFATYYCALWYSNLWVFGQGTKVEIKGGSGGSQVQLVQSGAEVKKPGSSVKVSCKASGGTFSSYGISWVRQAPGQGLEWMGGIIPIFGSAHYAQKFQGRVTITADESTSTAYMELSSLRSEDTAVYYCAREYYYDSSEWAFDIWGQGTLVTVSSGGSGQSVLTQPPSASGTPGQRVTISCSGSSSNIGSNTVKWYQQLPGTAPKLLIYSNNQRSSGVPDRFSGSKSGSSASLAISGLQSEDEADYYCAAWDDSLNGYVFGGGTKLTVLGGSGGSEVQLVESGGGLVQPGGSLRLSCAASGFTFSTYAMNWVRQAPGKGLEWVGRIRSKYNNYATYYADSVKDRFTISRDDSKNSLYLQMNSLKTEDTAVYYCARHGNFGNSYVSWFAYWGQGTLVTVSS
notes: Non-covalent homodimer
B4: CD33/CD3 2×2 T-cell engager 17 (bispecific antibody)
chain: DIQMTQSPSSLSASVGDRVTITCRSSTGAVTTSNYANWVQQKPGKAPKALIGGTNKRAPGVPSRFSGSLIGDKATLTISSLQPEDFATYYCALWYSNLWVFGQGTKVEIKGGSGGSQVQLVQSGAEVKKPGESLKISCKGSGYSFTSYWIGWVRQMPGKGLEWMGIIYPGDSDTRYSPSFQGQVTISADKSISTAYLQWSSLKASDTAMYYCARHKRGSDAFDIWGQGTTVTVSSGGSGQSVLTQPPSVSGAPGQRVTISCTGSSSNIGAGYDVHWYQQLPGTAPKLLIYGNSNRPSGVPDRFSGSKSGTSASLAITGLQAEDEADYYCQSYDSSLSDVVFGGGTKLTVLGGSGGSEVQLVESGGGLVQPGGSLRLSCAASGFTFSTYAMNWVRQAPGKGLEWVGRIRSKYNNYATYYADSVKDRFTISRDDSKNSLYLQMNSLKTEDTAVYYCARHGNFGNSYVSYFAYWGQGTLVTVSSAAAGSHHHHHH
notes: Non-covalent homodimer
B5: CD33/CD3 2×2 T-cell engager 21 (bispecific antibody)
chain: DIQMTQSPSSLSASVGDRVTITCRSSTGAVTTSNYANWVQQKPGKAPKALIGGTNKRAPGVPSRFSGSLIGDKATLTISSLQPEDFATYYCALWYSNLWVFGQGTKVEIKGGSGGSQVQLVQSGAEVKKPGSSVKVSCKASGGTFSSYAISWVRQAPGQGLEWMGGIYPIFGSANYAQKFQGRVTITADESTSTAYMELSSLRSEDTAVYYCAREYYYDSSEWAFDIWGQGTLVTVSSGGSGQSVLTQPPSASGTPGQRVTISCSGSSSNIGSNIVNWYQQLPGTAPKLLIYSNNQRPSGVPDRFSGSKSGTSASLAISGLQSEDEADYYCAAWDDSLKGYVFGGGTKLTVLGGSGGSEVQLVESGGGLVQPGGSLRLSCAASGFTFSTYAMNWVRQAPGKGLEWVGRIRSKYNNYATYYADSVKDRFTISRDDSKNSLYLQMNSLKTEDTAVYYCARHGNFGNSYVSYFAYWGQGTLVTVSSAAAGSHHHHHH
notes: Non-covalent homodimer
B6: CD33/CD3 2×2 T-cell engager 22 (bispecific antibody)
chain: DIQMTQSPSSLSASVGDRVTITCRSSTGAVTTSNYANWVQQKPGKAPKALIGGTNKRAPGVPSRFSGSLIGDKATLTISSLQPEDFATYYCALWYSNLWVFGQGTKVEIKGGSGGSQVQLVQSGAEVKKPGSSVKVSCKASGGTFSSYGISWVRQAPGQGLEWMGGIIPIFGSAHYAQKFQGRVTITADESTSTAYMELSSLRSEDTAVYYCAREYYYDSSEWAFDIWGQGTLVTVSSGGSGQSVLTQPPSASGTPGQRVTISCSGSSSNIGSNTVKWYQQLPGTAPKLLIYSNNQRSSGVPDRFSGSKSGSSASLAISGLQSEDEADYYCAAWDDSLNGYVFGGGTKLTVLGGSGGSEVQLVESGGGLVQPGGSLRLSCAASGFTFSTYAMNWVRQAPGKGLEWVGRIRSKYNNYATYYADSVKDRFTISRDDSKNSLYLQMNSLKTEDTAVYYCARHGNFGNSYVSYFAYWGQGTLVTVSSAAAGSHHHHHH
notes: Non-covalent homodimer

Assays:
human CD3 [1] = molecular target: T1, human CD3 (human, UniProt P07766 23-207; P09693 23-182; P04234 22-171; P20963 22-164); assay: flow cytometry titration, T cells (human CD3+)
T1 construct: whole, on cells; the description names the epsilon chain only 'in certain instances'; also called hu CD3; CD3 on T cells

human CD33 [2] = molecular target: T2, human CD33 (human, UniProt P20138 18-364); assay: flow cytometry titration, HL-60 cells
T2 construct: whole, on cells; also called huCD33; CD33 on HL-60, KG-1, KG-1a, U-937 cells
Procedure, shortened: (§1)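 Cells titrated with CD33/CD3 2×2 T-cell engagers, detected via anti-His then FITC anti-mouse IgG on ice, with PI exclusion of dead cells. Background-subtracted mean fluorescence fit to one-site binding for KD; cross-reactivity ratio from KDs on CHO cells expressing recombinant cynomolgus or human CD33.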

human CD33 [3] = molecular target: T2, human CD33; assay: flow cytometry titration, KG-1 cells
Procedure, shortened: as §1

human CD3 [4] = molecular target: T1, human CD3; assay: flow cytometry, human T-cells
human CD33 [5] = molecular target: T2, human CD33; assay: cell-based or functional assay
human CD33 [6] = molecular target: T2, human CD33; assay: cell-based or functional assay; remark: listed apart in the source
human CD33 [7] = molecular target: T2, human CD33; assay: cell-based or functional assay; remark: listed apart in the source
human CD33 [8] = molecular target: T2, human CD33; assay: flow cytometry, HL-60 cells
human CD3 [9] = molecular target: T1, human CD3; assay: cell-based or functional assay
human CD33 [10] = molecular target: T2, human CD33; assay: cell-based or functional assay; remark: listed apart in the source
human CD33 [11] = molecular target: T2, human CD33; assay: flow cytometry titration, U-937 cells
Procedure, shortened: as §1

cynomolgus CD33 = molecular target: T3, cynomolgus CD33 (cynomolgus, UniProt A0A7N9ICR5 17-359); assay: ratio of KD by flow cytometry on CHO cells expressing cynomolgus CD33 vs human CD33
T3 construct: whole, on cells; also called cynoCD33; cyno CD33
Protocol: Cells were incubated with 100 μL of serial dilutions of CD33/CD3 2×2 T-cell engagers. After washing three times with FACS buffer the cells were incubated with 0.1 mL of 10 μg/mL mouse monoclonal anti-His antibody in the same buffer for 45 min on ice. After a second washing cycle, the cells were incubated with 0.1 mL of 15 μg/mL FITC-conjugated goat anti-mouse IgG antibodies under the same conditions as before. As a control, cells were incubated with the anti-His IgG followed by the FITC-conjugated goat anti-mouse IgG antibodies without anti-CD33 2×2 T-cell engagers. The cells were then washed again and resuspended in 0.2 mL of FACS buffer containing 2 μg/mL propidium iodide (PI) in order to exclude dead cells. The fluorescence of 1×10⁴ living cells was measured using a Beckman-Coulter FC500 MPL flow cytometer using the MXP software (Beckman-Coulter, Krefeld, Germany) or a Millipore Guava EasyCyte flow cytometer using the Incyte software (Merck Millipore, Schwalbach, Germany). Mean fluorescence intensities of the cell samples were calculated using CXP software (Beckman-Coulter, Krefeld, Germany) or Incyte software (Merck Millipore, Schwalbach, Germany). After subtracting the fluorescence intensity values of the cells stained with the secondary and tertiary reagents alone the values were used for calculation of the KD values with the equation for one-site binding (hyperbola) of the GraphPad Prism (version 6.00 for Windows, GraphPad Software, La Jolla Calif. USA).
CD3 binding affinity and crossreactivity were evaluated in titration and flow cytometric experiments on CD3⁺ Jurkat cells (provided by Dr. Moldenhauer, DKFZ Heidelberg; human acute T-cell leukemia) and the cynomolgus CD3⁺ HSC-F cell line (JCRB, cat.:JCRB 1164). […] The KD ratio of crossreactivity was calculated using the KD values determined on the CHO cell lines expressing either recombinant human or recombinant cynomolgus antigens.

T2 sequence (P20138 18-364): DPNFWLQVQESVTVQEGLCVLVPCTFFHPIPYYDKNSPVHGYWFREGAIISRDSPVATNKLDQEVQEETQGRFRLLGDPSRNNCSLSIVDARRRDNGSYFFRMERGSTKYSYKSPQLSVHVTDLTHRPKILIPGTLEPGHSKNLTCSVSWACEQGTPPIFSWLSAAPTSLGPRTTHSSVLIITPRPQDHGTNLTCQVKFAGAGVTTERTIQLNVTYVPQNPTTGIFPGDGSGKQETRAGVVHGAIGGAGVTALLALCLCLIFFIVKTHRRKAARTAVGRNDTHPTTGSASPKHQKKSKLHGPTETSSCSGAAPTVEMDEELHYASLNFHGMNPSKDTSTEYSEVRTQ
T1 sequence (P07766 23-207, chain 1 of 4): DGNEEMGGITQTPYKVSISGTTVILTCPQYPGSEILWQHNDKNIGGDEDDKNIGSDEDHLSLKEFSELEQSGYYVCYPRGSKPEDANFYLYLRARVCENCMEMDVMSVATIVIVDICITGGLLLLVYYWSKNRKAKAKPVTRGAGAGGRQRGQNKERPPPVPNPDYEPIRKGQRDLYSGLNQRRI
T1 sequence (P09693 23-182, chain 2 of 4): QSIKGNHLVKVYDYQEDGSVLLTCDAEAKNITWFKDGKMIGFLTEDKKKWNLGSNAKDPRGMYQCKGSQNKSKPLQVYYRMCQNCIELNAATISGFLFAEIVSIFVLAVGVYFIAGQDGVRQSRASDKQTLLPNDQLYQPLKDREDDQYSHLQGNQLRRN
T1 sequence (P04234 22-171, chain 3 of 4): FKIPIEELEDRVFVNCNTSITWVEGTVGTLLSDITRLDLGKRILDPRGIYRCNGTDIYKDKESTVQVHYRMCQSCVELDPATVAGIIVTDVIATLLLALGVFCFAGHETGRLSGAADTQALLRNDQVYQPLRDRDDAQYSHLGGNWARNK
T1 sequence (P20963 22-164, chain 4 of 4): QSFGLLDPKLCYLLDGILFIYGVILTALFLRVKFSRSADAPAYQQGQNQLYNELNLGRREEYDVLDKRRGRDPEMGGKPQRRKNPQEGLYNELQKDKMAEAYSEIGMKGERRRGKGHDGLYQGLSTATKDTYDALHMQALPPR

Binder | Kd (human CD3 [1]) | Kd (human CD33 [2]) | Kd (human CD33 [3]) | Kd (human CD3 [4]) | EC50 on HL-60 (cytotoxicity) (human CD33 [7]) | Kd (human CD33 [8]) | CD25 Induction EC50 (human CD3 [9]) | CD69 Induction EC50 (human CD3 [9]) | T cell Proliferation in PBMC EC50 (human CD3 [9]) | Kd (human CD33 [11]) | KD ratio cynoCD33/huCD33 (cynomolgus CD33) | further results
B1 | 1500 pM | 300 pM | 900 pM | 1500 pM | 1.3 pM | 300 pM | 6 pM | 3 pM | 2 pM | 500 pM |  | IC50, lysis of KG-1 cells with human T cells (human CD33 [5]): ~0.01 pM; EC50 (mean), redirected lysis of BV-173 cells (human CD33 [6]): 1.4 pM; EC50 (mean), redirected lysis of CHO-CD33 cells (human CD33 [6]): 11.8 pM; EC50 (mean), redirected lysis of HL-60 cells (human CD33 [6]): 1.4 pM; EC50 (mean), redirected lysis of K562 cells (human CD33 [6]): 4.5 pM; EC50 (mean), redirected lysis of KASUMI-1 cells (human CD33 [6]): 1.3 pM; EC50 (mean), redirected lysis of KG-1 cells (human CD33 [6]): 1 pM; EC50 (mean), redirected lysis of RPMI-8226 cells (human CD33 [6]): 14 pM; EC50 (mean), redirected lysis of THP-1 cells (human CD33 [6]): 1.9 pM; EC50 (mean), redirected lysis of U-937 cells (human CD33 [6]): 0.9 pM; EC50, cytotoxicity on HL-60 (human CD33 [10]): 1.3 pM and 137 pg/mL; EC50, cytotoxicity on KG-1 (human CD33 [10]): 1.2 pM and 126 pg/mL; EC50, cytotoxicity on U-937 (human CD33 [10]): 0.8 pM and 84 pg/mL; EC50, cytotoxicity, mean of HL-60, U-937, KG-1 (human CD33 [10]): 1.1 pM and 116 pg/mL
B2 | 49700 pM | 13700 pM | 47900 pM | 49700 pM | 17.8 pM | 13700 pM | 134 pM | 65 pM | 50 pM | 47100 pM | 45.8 | 
B3 | 97200 pM | 400 pM | 1000 pM | 97200 pM | 2.8 pM | 400 pM | 41 pM | 17 pM | 37 pM | 5100 pM | 1.9 | 
B4 | 3300 pM | 5000 pM | 52500 pM | 3300 pM | 18.4 pM | 5000 pM | 30 pM | 114 pM | 30 pM | 24400 pM | 1.9 | 
B5 | 2100 pM | 9700 pM | 25100 pM | 2100 pM | 7.6 pM | 9700 pM |  | 225 pM | 500 pM | 80200 pM | 0.9 | 
B6 | 4100 pM | 700 pM | 2000 pM | 4100 pM | 3.2 pM | 700 pM | 10 pM | 4 pM | 7 pM | 8600 pM | 0.6 | 
